# Measured values reported in patent publication US20260242478A1 (published 2026).
# Where no end group is shown, it is not given here.
# B1: Phage-471 (peptide)
# peptide: SCAAGASYAWPYCL
# notes: Clonal phage supernatant; not shown: bacteriophage pIII to which the peptide is fused for display
# B2: Phage-459 (peptide)
# peptide: GCQYPWAFDAMSCP
# modifications: cysteine pairing not given here; also: displayed on phage, fused to pIII
# notes: as for B1
# B3: Phage-470 (peptide)
# peptide: WICDKSGSIMLCRA
# notes: as for B1
# B4: Phage-466 (peptide)
# peptide: YCAGHAWQYINKCL
# modifications: cysteine pairing not given here; also: displayed on phage, fused to pIII
# notes: as for B1
# B5: Phage-454 (peptide)
# peptide: YWSCFQIPFTCFYF
# notes: as for B1
# B6: Phage-468 (peptide)
# peptide: YWYCSPSIVRCVLV
# modifications: cysteine pairing not given here; also: displayed on phage, fused to pIII
# notes: as for B1
# B7: Phage-461 (peptide)
# peptide: WCWDYREWVPMTCP
# modifications: cysteine pairing not given here; also: displayed on phage, fused to pIII
# notes: as for B1
# B8: Phage-467 (peptide)
# peptide: WCWYYREWVPMTCP
# modifications: cysteine pairing not given here; also: displayed on phage, fused to pIII
# notes: as for B1
# B9: Phage-460 (peptide)
# peptide: WCWDYKLWVPTQCP
# modifications: cysteine pairing not given here; also: displayed on phage, fused to pIII
# notes: as for B1
# B10: Phage-462 (peptide)
# peptide: ECHWSMWAVGHACF
# modifications: cysteine pairing not given here; also: displayed on phage, fused to pIII
# notes: as for B1
# B11: Phage-455 (peptide)
# peptide: WECLKYTEANACTY
# notes: as for B1
# B12: Phage-464 (peptide)
# peptide: WCWDYKLWVPMTCP
# modifications: cysteine pairing not given here; also: displayed on phage, fused to pIII
# notes: as for B1
# B13: Phage-457 (peptide)
# peptide: PDCQTILFKPWCVR
# modifications: cysteine pairing not given here; also: displayed on phage, fused to pIII
# notes: as for B1
# B14: Phage-465 (peptide)
# peptide: DCWWMFESYPGRCI
# modifications: cysteine pairing not given here; also: displayed on phage, fused to pIII
# notes: as for B1
# B15: Phage-458 (peptide)
# peptide: ACDTYFAGMINECF
# modifications: cysteine pairing not given here; also: displayed on phage, fused to pIII
# notes: as for B1
# B16: Phage-456 (peptide)
# peptide: FMCLPQNPHPLCFK
# notes: as for B1
# B17: Phage-463 (peptide)
# peptide: YCAGHSPINIGKCL
# modifications: cysteine pairing not given here; also: displayed on phage, fused to pIII
# notes: as for B1
# B18: Phage-95 (peptide)
# peptide: MDWCPRFLWSECFN
# modifications: cysteine pairing not given here; also: displayed on phage as fusion to pIII, linker not given here
# notes: also called position columns give F at position 7)
# B19: Phage-96 (peptide)
# peptide: MDWCPRTLWAYCFN
# modifications: cysteine pairing not given here; also: displayed on phage as fusion to pIII, linker not given here
# B20: Phage-93 (peptide)
# peptide: MDWCPRYLWTVCFS
# modifications: cysteine pairing not given here; also: displayed on phage as fusion to pIII, linker not given here
# B21: Phage-94 (peptide)
# peptide: MDWCPRDLWSLCFY
# modifications: cysteine pairing not given here; also: displayed on phage as fusion to pIII, linker not given here
# B22: Peptide-127 (peptide)
# peptide: YCEGHLPEYLAKCL
# modifications: not fully specified; cysteine pairing not given here; also: biotinylated, site not given here
# B23: Peptide-126 (peptide)
# peptide: YCEGHLPEYREKCL
# modifications: not fully specified; cysteine pairing not given here; also: biotinylated, site not given here
# Biological target: T1, Anti-CD28 Fab (SEQ ID NOs: 696, 697)
# T1 construct: In the phage ELISA the Fab was biotinylated and captured on neutravidin coated plates
# T1 sequence (VH, as listed by the source, chain 1 of 2): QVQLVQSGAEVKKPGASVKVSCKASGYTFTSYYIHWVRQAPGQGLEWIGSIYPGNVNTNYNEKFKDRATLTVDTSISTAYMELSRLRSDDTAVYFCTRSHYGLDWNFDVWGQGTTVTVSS
# T1 sequence (VL, as listed by the source, chain 2 of 2): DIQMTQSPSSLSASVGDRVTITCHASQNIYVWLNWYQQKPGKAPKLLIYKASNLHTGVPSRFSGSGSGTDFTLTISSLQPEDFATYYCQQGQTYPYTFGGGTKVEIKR
# Experiment: phage binding ELISA on plate-captured Fab, competitor CD28 antigen
# Description: (§1) After panning, phage infected bacteria were plated out and colonies picked into 96 well blocks. Clonal phage was then amplified and separated from bacterial cells via centrifugation.
# (§2) Clonal phage were harvested as crude supematants and screened via standard ELISAs. […] Prior to the addition of clonal phage, wells were incubated with blocking buffer and CD28 antigen or blocking buffer alone. Without washing or aspirating, clonal phage supematants were then added to the wells and incubated for a short time. Wells were then washed followed by detection of bound phage using a horse radish conjugated anti-M13 antibody. Clonal phage of interest were then sent for sequence analysis.
row,Binder,Anti-CD28 Fab signal in the presence of CD28
1,B1,0.05
2,B2,0.07
3,B3,0.06
4,B4,0.07
5,B5,0.27
6,B6,0.09
7,B7,0.08
8,B8,0.07
9,B9,0.14
10,B10,0.07
11,B11,0.07
12,B12,0.11
13,B13,0.06
14,B14,0.07
15,B15,0.1
16,B16,0.06
17,B17,0.06

# Biological target: T2, anti-CD28 scFv (VH - linker 1 - VL) (biotinylated (site not given))
# T2 construct: Biotinylated scFv captured on neutravidin coated plates in the panning ELISA
# T2 sequence (scFv, as listed by the source): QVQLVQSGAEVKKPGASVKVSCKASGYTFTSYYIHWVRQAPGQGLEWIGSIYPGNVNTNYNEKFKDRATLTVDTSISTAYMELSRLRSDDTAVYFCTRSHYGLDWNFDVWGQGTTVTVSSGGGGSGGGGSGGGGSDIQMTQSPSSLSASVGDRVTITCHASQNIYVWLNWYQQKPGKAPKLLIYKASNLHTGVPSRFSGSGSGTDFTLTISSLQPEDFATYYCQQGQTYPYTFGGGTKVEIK
# Experiment: phage ELISA as above; wells pre-incubated with soluble CD28 as competitor;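 further: crude clonal phage supernatants tested, with bound phage detected by HRP-conjugated anti-M13 antibody, and reference wells given blocking buffer without CD28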
row,Binder,CD28 scFv signal in presence of CD28
1,B18,0.227
2,B19,0.584
3,B20,0.372
4,B21,0.246

# Biological target: T1, Anti-CD28 Fab (SEQ ID NOs: 696, 697)
# Experiment: phage binding ELISA, biotinylated Fab on neutravidin plate, anti-M13 HRP detection;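 further: crude clonal phage supernatants added to Fab-coated wells pretreated with CD28 antigen or with blocking buffer only, bound phage measured after washing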
# Description: as §1, §2
row,Binder,"Anti-CD28 Fab (SEQ ID NOs: 696, 697) signal"
1,B1,1.49
2,B2,2.38
3,B3,0.91
4,B4,0.64
5,B5,1.44
6,B6,1.51
7,B7,2.3
8,B8,1.85
9,B9,2.27
10,B10,1.77
11,B11,1.55
12,B12,2.51
13,B13,2.09
14,B14,1.65
15,B15,0.92
16,B16,0.84
17,B17,1.49

# Biological target: T2, anti-CD28 scFv (VH - linker 1 - VL)
# Experiment: phage ELISA; biotinylated anti-CD28 scFv on neutravidin plate, clonal phage supernatant, anti-M13 HRP
# Description: Clonal phage were harvested as crude supernatants and screened via standard enzyme linked immunosorbent assays (ELISAs). […] Prior to the addition of clonal phage, wells were incubated with blocking buffer and CD28 soluble protein or blocking buffer alone. Without washing or aspirating, clonal phage supernatants were then added to the wells and incubated for a short time. Wells were then washed followed by detection of bound phage using a horse radish peroxidase conjugated anti-M13 antibody.
row,Binder,CD28 scFv signal
1,B18,2.57
2,B19,2.57
3,B20,2.58
4,B21,2.57

# Biological target: anti-CD28 Fab
# Experiment: competition ELISA, peptide titrated 0-100 uM against 1 nM anti-CD28 Fab, plate-bound CD28 as competitor
# Target sequence in this assay (VH, as listed by the source, chain 1 of 2): as the sequence (VH, as listed by the source, chain 1 of 2) above
# Target sequence in this assay (VL, as listed by the source, chain 2 of 2): as the sequence (VL, as listed by the source, chain 2 of 2) above
row,Binder,IC50
1,YCEGHLPEYLGKCL [Peptide-125],0.83 µM
2,YCEGHLPEYLAKCL,0.3 µM
3,YCEGHLPEYLEKCV [Peptide-133],2.9 µM
4,YCWSHSPPFIKKCY [Peptide-131],> 100 µM
5,YCEGHSPEYILKCL [Peptide-117],1.53 µM
6,YCEGHRPEYILKCL [Peptide-118],13.3 µM
7,YCEGHSQENIWKCL [Peptide-124],4.07 µM
8,YCEGHSQEYLWKCL [Peptide-128],9.66 µM
9,HCSGHHWLQVWKCF [Peptide-130],> 100 µM
10,YCEGHEGIYFWKCL [Peptide-119],77.7 µM
11,YCEGHSSEYIQKCL [Peptide-129],3.18 µM
12,YCEGHLPEYIEKCL,0.36 µM
13,YCEGHAPEYIGKCL [Peptide-136],4.12 µM
14,YCEGHAPEYIAKCL,0.48 µM
15,YCEGHAPEYIRKCL [Peptide-122],2.22 µM
16,YCEGHAPEYIWKCL [Peptide-123],1.32 µM
17,YCEGHLPEYIWKCL [Peptide-135],0.63 µM

# Biological target: anti-CD28 Fab
# Experiment: BLI (Octet): biotinylated peptide on streptavidin sensor, anti-CD28 Fab titrated in solution, 1:1 model
# Target sequence in this assay (VH, as listed by the source, chain 1 of 2): as the sequence (VH, as listed by the source, chain 1 of 2) above
# Target sequence in this assay (VL, as listed by the source, chain 2 of 2): as the sequence (VL, as listed by the source, chain 2 of 2) above
Binder,Kd,t1/2,koff,kon
B22,0.0447 µM,60 s,,
"YCEGHAPEYIAKCL (cysteine pairing not given here; also: biotinylated, site not given here)",0.831 µM,24 s,0.028 s⁻¹,33700 M⁻¹ s⁻¹
"YCEGHLPEYIEKCL (cysteine pairing not given here; also: biotinylated, site not given here)",0.926 µM,30 s,0.0239 s⁻¹,25800 M⁻¹ s⁻¹
B23,,36 s,,
